IntAct's records for PubMed 18772112

B1: Catenin beta-1 (Homo sapiens), P35222 (parent)
chain: MATQADLMELDMAMEPDRKAAVSHWQQQSYLDSGIHSGATTTAPSLSGKGNPEEEDVDTSQVLYEWEQGFSQSFTQEQVADIDGQYAMTRAQRVRAAMFPETLDEGMQIPSTQFDAAHPTNVQRLAEPSQMLKHAVVNLINYQDDAELATRAIPELTKLLNDEDQVVVNKAAVMVHQLSKKEASRHAIMRSPQMVSAIVRTMQNTNDVETARCTAGTLHNLSHHREGLLAIFKSGGIPALVKMLGSPVDSVLFYAITTLHNLLLHQEGAKMAVRLAGGLQKMVALLNKTNVKFLAITTDCLQILAYGNQESKLIILASGGPQALVNIMRTYTYEKLLWTTSRVLKVLSVCSSNKPAIVEAGGMQALGLHLTDPSQRLVQNCLWTLRNLSDAATKQEGMEGLLGTLVQLLGSDDINVVTCAAGILSNLTCNNYKNKMMVCQVGGIEALVRTVLRAGDREDITEPAICALRHLTSRHQEAEMAQNAVRLHYGLPVVVKLLHPPSHWPLIKATVGLIRNLALCPANHAPLREQGAIPRLVQLLVRAHQDTQRRTSMGGTQQQFVEGVRMEEIVEGCTGALHILARDVHNRIVIRGLNTIPLFVQLLYSPIENIQRVAAGVLCELAQDKEAAEAIEAEGATAPLTELLHSRNEGVATYAAAVLFRMSEDKPQDYKKRLSVELTSSLFRTEPMAWNETADLGLDIGAQGEPLGYRQDDPSYRSFHSGGYGQDALGMDPMMEHEMGGHHPGADYPVDGLPDLGHAQDLMDGLPPGDSNQLAWFDTDL

Variants of: B1
Settings: with runx3_human RUNX3, Q13761
Sequence of runx3_human RUNX3, Q13761 (Q13761 whole entry): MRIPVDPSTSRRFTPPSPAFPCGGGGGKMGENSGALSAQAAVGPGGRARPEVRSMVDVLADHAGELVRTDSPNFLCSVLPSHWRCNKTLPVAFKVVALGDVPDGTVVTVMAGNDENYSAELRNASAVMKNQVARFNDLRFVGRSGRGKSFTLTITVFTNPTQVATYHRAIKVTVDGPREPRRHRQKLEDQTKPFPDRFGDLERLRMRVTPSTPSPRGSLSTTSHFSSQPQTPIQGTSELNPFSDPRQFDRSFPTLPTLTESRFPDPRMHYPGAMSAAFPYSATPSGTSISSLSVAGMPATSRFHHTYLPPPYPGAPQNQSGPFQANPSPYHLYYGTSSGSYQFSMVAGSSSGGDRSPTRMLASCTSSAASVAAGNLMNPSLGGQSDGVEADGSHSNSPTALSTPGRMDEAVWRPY

effect of a mutation on the interaction	Variant
increasing interaction	S33Y
